The source of these data is publication PMC12713080.

The labels stand for the following.
B1: HA‐TAK1 [human] / Flag‐TRAF2 [not stated] (parent)
chain 1: MSTASAASSSSSSSAGEMIEAPSQVLNFEEIDYKEIEVEEVVGRGAFGVVCKAKWRAKDVAIKQIESESERKAFIVELRQLSRVNHPNIVKLYGACLNPVCLVMEYAEGGSLYNVLHGAEPLPYYTAAHAMSWCLQCSQGVAYLHSMQPKALIHRDLKPPNLLLVAGGTVLKICDFGTACDIQTHMTNNKGSAAWMAPEVFEGSNYSEKCDVFSWGIILWEVITRRKPFDEIGGPAFRIMWAVHNGTRPPLIKNLPKPIESLMTRCWSKDPSQRPSMEEIVKIMTHLMRYFPGADEPLQYPCQYSDEGQSNSATSTGSFMDIASTNTSNKSDTNMEQVPATNDTIKRLESKLLKNQAKQQSESGRLSLGASRGSSVESLPPTSEGKRMSADMSEIEARIAATTAYSKPKRGHRKTASFGNILDVPEIVISGNGQPRRRSIQDLTVTGTEPGQVSSRSSSPSVRMITTSGPTSEKPTRSHPWTPDDSTDTNGSDNSIPMAYLTLDHQLQPLAPCPNSKESMAVFEQHCKMAQEYMKVQTEIALLLQRKQELVAELDQDEKDQQNTSRLVQEHKKLLDENKSLSTYYQQCKKQLEVIRSQQQKRQGTS
chain 2: MAAASVTPPGSLELLQPGFSKTLLGTKLEAKYLCSACRNVLRRPFQAQCGHRYCSFCLASILSSGPQNCAACVHEGIYEEGISILESSSAFPDNAARREVESLPAVCPSDGCTWKGTLKEYESCHEGRCPLMLTECPACKGLVRLGEKERHLEHECPERSLSCRHCRAPCCGADVKAHHEVCPKFPLTCDGCGKKKIPREKFQDHVKTCGKCRVPCRFHAIGCLETVEGEKQQEHEVQWLREHLAMLLSSVLEAKPLLGDQSHAGSELLQRCESLEKKTATFENIVCVLNREVERVAMTAEACSRQHRLDQDKIEALSSKVQQLERSIGLKDLAMADLEQKVLEMEASTYDGVFIWKISDFARKRQEAVAGRIPAIFSPAFYTSRYGYKMCLRIYLNGDGTGRGTHLSLFFVVMKGPNDALLRWPFNQKVTLMLLDQNNREHVIDAFRPDVTSSSFQRPVNDMNIASGCPLFCPVSKMEAKNSYVRDDAIFIKAIVDLTGL

Variants of B1 are the subject of the experiment. In words: co-immunoprecipitation (anti-HA beads), IB quantified. Conditions: with Flag‐TRAF2; HEK293T cells cotransfected; mean+/-SD, n = 3; read off a plot.
Regarding chain 1 H154A M196A, the response came out at 0.25.
